Source: publication PMC6889386

Molecular target: EGFR on A549-derived exosomes (A-Exo) (UniProt P00533)
Test: flow cytometry
Conditions: MSN-aptamer conjugates incubated with PKH67-labelled exosomes in cell medium or rat blood (37 C, 1-4 h, static or 100 rpm), buffer details not given

Sequence | binding signal (% positive events) (carboxyl-functionalized (terminus not stated), EDC/NHS-conjugated to MSN-NH2 nanoparticle) | binding signal (% positive events) (amino-functionalized (terminus not stated), EDC/NHS-conjugated to MSN-COOH nanoparticle)
TACCAGTGCGATGCTCAGTGCCGTTTCTTCTCTTTCGCTTTTTTTGCTTTTGAGCATGCTGACGCATTCGGTTGAC [anti-EGFR DNA aptamer on positively charged MSN (MSN-AP)] | 26.6 | –
TACCAGTGCGATGCTCAGTGCCGTTTCTTCTCTTTCGCTTTTTTTGCTTTTGAGCATGCTGACGCATTCGGTTGAC [anti-EGFR DNA aptamer on negatively charged MSN (MSN-AP-)] | – | 8.1
